Target: recombinant C-terminal StrepII-tagged ScSbtB (SbtB from Synechocystis sp. PCC 6803) (Synechocystis sp. PCC 6803), P73954
Assay: crystal structure
Details: remark: other sources report otherwise

B1: recombinant C-terminal StrepII-tagged ScSbtB (SbtB from Synechocystis sp. PCC 6803), P73954 1-110 (natural protein)
chain: MAKPANKLVIVTEKILLKKIAKIIDESGAKGYTVMNTGGKGSRNVRSSGQPNTSDIEANIKFEILTETREMAEEIADRVAVKYFNDYAGIIYICSAEVLYGHTFCGPEGC
Binder B1 has a stoichiometry N of 3.

Source: publication PMC8654305
